Where no end group is shown, it is not given here.
Target: endogenous VIP receptor of SUP-T1 cells (human)
Assay: cell-based or functional assay

- cAMP Productivity in SUP-T1 Cells, Activity Intensity (%) relative to native VIP: 100%
Binder: HSDAVFTDNYTRLRKQMAVKKYLNSILN-NH2 [VIP(1-28)-NH2]

Reference: patent US20130123460A1 (SANWA KAGAKU KENKYUSHO, published 2013)
